Source: article PMC4098917, “Assembly of the Type Two Secretion System in Aeromonas hydrophila Involves Direct Interaction between the Periplasmic Domains of the Assembly Factor ExeB and the Secretin ExeD” (PLoS ONE, 2014)

Experiments:
[1] = molecular target: dimerization domain (40 aa) of the Gal4 transcriptional activator protein (pBT-LGF2); assay: two-hybrid; bacterial two-hybrid (BacterioMatch, E. coli BM2H; bait pBT, target pTRG); minimum inhibitory concentration of carbenicillin (0-12.8 mg/mL), 0.1 mM IPTG, overnight at 30°C
[2] = molecular target: T1, periplasmic domain of ExeB (bacterial two-hybrid fusion) (A. hydrophila, UniProt P45755 58-226); assay: two-hybrid; bacterial two-hybrid (BacterioMatch, E. coli BM2H; bait pBT, target pTRG); β-galactosidase activity of permeabilized cells, 0.02 mM IPTG; details: partners not purified
T1 construct: periplasmic domain of ExeB, A. hydrophila, amplified from pGAD424-P-ExeB; Stood in pBT and in pTRG; also called P-ExeB; source: bacterial two-hybrid fusion (E. coli BM2H)
T1 sequence: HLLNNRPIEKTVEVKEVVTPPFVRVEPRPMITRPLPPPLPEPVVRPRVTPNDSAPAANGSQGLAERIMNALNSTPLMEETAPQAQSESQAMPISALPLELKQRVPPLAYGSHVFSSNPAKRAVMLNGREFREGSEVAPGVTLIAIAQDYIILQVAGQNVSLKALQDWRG

[3] = molecular target: T2, N-His-tagged periplasmic domain of ExeD, purified (A. hydrophila, UniProt P31780 26-355); assay: fluorescence polarisation; steady state rotational anisotropy; F-labeled P-ExeB 50 nM, titration of P-ExeD 0-4000 nM, RT buffer, 21°C; apparent Kd from a rectangular hyperbola; details: both partners purified
T2 construct: periplasmic domain of ExeD, A. hydrophila, in NdeI/XhoI of pET30a; the printed primers carry no His codons and no stop codon, so the tag may be the vector's C-terminal one (my surmise); also called P-ExeD; N-His-tagged-P-ExeD; source: E. coli BL21, purified (Ni-NTA, Resource S ion exchange)
T2 sequence: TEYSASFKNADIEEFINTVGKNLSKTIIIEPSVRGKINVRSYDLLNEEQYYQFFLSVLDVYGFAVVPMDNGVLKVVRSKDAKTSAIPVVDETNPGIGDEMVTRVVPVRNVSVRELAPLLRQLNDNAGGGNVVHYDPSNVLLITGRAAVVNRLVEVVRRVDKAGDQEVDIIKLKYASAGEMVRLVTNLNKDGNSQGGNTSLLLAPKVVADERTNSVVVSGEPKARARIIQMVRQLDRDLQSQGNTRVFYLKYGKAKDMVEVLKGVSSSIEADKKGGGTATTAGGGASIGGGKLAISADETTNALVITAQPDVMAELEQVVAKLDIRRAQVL

domain (90aa) of the mutant form of the Gal11 protein (pTRG-Gal11P) (domain or fragment)
MIC of carbenicillin [1]: 12.8 mg/mL

B1: periplasmic domain of ExeD (bacterial two-hybrid fusion) (domain or fragment)
chain: TEYSASFKNADIEEFINTVGKNLSKTIIIEPSVRGKINVRSYDLLNEEQYYQFFLSVLDVYGFAVVPMDNGVLKVVRSKDAKTSAIPVVDETNPGIGDEMVTRVVPVRNVSVRELAPLLRQLNDNAGGGNVVHYDPSNVLLITGRAAVVNRLVEVVRRVDKAGDQEVDIIKLKYASAGEMVRLVTNLNKDGNSQGGNTSLLLAPKVVADERTNSVVVSGEPKARARIIQMVRQLDRDLQSQGNTRVFYLKYGKAKDMVEVLKGVSSSIEADKKGGGTATTAGGGASIGGGKLAISADETTNALVITAQPDVMAELEQVVAKLDIRRAQVL
notes: periplasmic domain of ExeD, A. hydrophila, amplified from pGAD424-P-ExeD; Stood in pTRG and in pBT; also called P-ExeD; full-length P-ExeD; source: bacterial two-hybrid fusion (E. coli BM2H)
fold β-galactosidase activity over cells with the empty vectors [2]: > 11 fold

B2: fluorescein-EX labeled N-His-tagged periplasmic domain of ExeB (domain or fragment)
chain: HLLNNRPIEKTVEVKEVVTPPFVRVEPRPMITRPLPPPLPEPVVRPRVTPNDSAPAANGSQGLAERIMNALNSTPLMEETAPQAQSESQAMPISALPLELKQRVPPLAYGSHVFSSNPAKRAVMLNGREFREGSEVAPGVTLIAIAQDYIILQVAGQNVSLKALQDWRG
modifications: fluorescein (Fluorescein-EX Protein Labeling kit), ~0.8 moles of dye per mole of protein
notes: periplasmic domain of ExeB, A. hydrophila, in pET30a; Same construct as m27, purified and labelled; also called F-labeled P-ExeB; fluorescein-EX labeled P-ExeB; source: E. coli BL21, purified (Ni-NTA, Resource S ion exchange)
Kd [3]: 1190 ± 160 nM
